Patent publication CN116829596A (AUSTIA THERAPEUTICS INC, dated 2023)

B1: MAb4-YTE (antibody, human IgG1, kappa)
heavy: QVQLVQSGAEVKKPGSSVKVSCKASGYAFSSYWMNWVRQAPGQGLEWIGQIYPGDDDTNYNAKFQGRVTITVDKSTTTAYMELSSLRSEDTAVYFCAGSLMVTTGAPFDYWGQGTTVTVSSASTKGPSVFPLAPSSKSTSGGTAALGCLVKDYFPEPVTVSWNSGALTSGVHTFPAVLQSSGLYSLSSVVTVPSSSLGTQTYICNVNHKPSNTKVDKRVEPKSCDKTHTCPPCPAPELLGGPSVFLFPPKPKDTLYITREPEVTCVVVDVSHEDPEVKFNWYVDGVEVHNAKTKPREEQYNSTYRVVSVLTVLHQDWLNGKEYKCKVSNKALPAPIEKTISKAKGQPREPQVYTLPPSREEMTKNQVSLTCLVKGFYPSDIAVEWESNGQPENNYKTTPPVLDSDGSFFLYSKLTVDKSRWQQGNVFSCSVMHEALHNHYTQKSLSLSPG
light: DIQMTQSPSSLSASVGDRVTITCKASQDVGIAVAWYQQKPGKAPKFLIYYASHRGWGVPDRFSGSGSGTDFTLTISSLQPEDFATYFCQQYRSYPLTFGQGTKLEIKRTVAAPSVFIFPPSDEQLKSGTASVVCLLNNFYPREAKVQWKVDNALQSGNSQESVTEQDSKDSTYSLSSTLTLSKADYEKHKVYACEVTHQGLSSPVTKSFNRGEC
notes: Humanised full-length human IgG1 kappa; also called Mab-YTE
B2: MAb4-LS (antibody, human IgG1, kappa)
heavy: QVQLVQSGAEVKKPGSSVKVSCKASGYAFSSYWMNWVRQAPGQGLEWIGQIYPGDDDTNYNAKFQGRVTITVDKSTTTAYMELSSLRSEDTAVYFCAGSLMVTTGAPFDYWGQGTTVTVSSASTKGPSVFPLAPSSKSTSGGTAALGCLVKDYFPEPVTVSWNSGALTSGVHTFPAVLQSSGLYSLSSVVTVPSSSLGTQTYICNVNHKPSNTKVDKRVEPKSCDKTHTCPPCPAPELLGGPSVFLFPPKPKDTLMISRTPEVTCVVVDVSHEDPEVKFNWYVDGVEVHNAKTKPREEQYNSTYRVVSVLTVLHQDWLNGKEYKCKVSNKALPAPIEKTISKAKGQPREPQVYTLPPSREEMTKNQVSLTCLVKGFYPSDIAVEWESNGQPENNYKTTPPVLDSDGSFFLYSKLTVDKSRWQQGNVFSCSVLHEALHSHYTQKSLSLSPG
light: DIQMTQSPSSLSASVGDRVTITCKASQDVGIAVAWYQQKPGKAPKFLIYYASHRGWGVPDRFSGSGSGTDFTLTISSLQPEDFATYFCQQYRSYPLTFGQGTKLEIKRTVAAPSVFIFPPSDEQLKSGTASVVCLLNNFYPREAKVQWKVDNALQSGNSQESVTEQDSKDSTYSLSSTLTLSKADYEKHKVYACEVTHQGLSSPVTKSFNRGEC
notes: Humanised full-length human IgG1 kappa

Key:
[1] = target: T1, 人类血浆激肽释放酶 (human plasma kallikrein) (human, UniProt P03952 20-390; P03952 391-638); test: SPR, 37 C
T1 construct: The active enzyme is a cleaved two-chain form; also called pkal; pKal

[2] = target: T1, 人类血浆激肽释放酶 (human plasma kallikrein); test: SPR, 37 C, pH 6.0
[3] = target: T1, 人类血浆激肽释放酶 (human plasma kallikrein); test: SPR, 37 C, pH 7.4
[4] = target: T1, 人类血浆激肽释放酶 (human plasma kallikrein); test: SPR, 37 C, pH 7.4 or pH 6.0

T1 sequence (P03952 20-390 S143N limits assumed, chain 1 of 2): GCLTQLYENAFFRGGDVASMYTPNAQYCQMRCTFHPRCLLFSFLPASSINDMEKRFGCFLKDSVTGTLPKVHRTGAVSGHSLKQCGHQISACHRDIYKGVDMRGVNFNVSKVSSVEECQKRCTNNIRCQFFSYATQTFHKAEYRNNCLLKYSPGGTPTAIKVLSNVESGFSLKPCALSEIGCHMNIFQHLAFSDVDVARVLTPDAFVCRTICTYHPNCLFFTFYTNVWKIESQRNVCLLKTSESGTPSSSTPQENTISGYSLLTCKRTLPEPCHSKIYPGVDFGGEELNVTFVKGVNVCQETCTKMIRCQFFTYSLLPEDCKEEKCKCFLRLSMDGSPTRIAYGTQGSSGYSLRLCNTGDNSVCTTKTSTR
T1 sequence (P03952 391-638 limits assumed, chain 2 of 2): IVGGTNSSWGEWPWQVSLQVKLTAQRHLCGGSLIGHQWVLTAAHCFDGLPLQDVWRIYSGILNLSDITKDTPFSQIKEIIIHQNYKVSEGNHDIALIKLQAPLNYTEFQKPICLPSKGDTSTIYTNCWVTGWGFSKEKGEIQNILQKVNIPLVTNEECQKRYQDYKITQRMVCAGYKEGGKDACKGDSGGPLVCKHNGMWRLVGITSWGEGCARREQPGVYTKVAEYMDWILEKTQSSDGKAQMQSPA

Binder | fold stronger binding affinity than DX-2930 [1] | Kd [2] [nM] | Kd [3] [nM] | fold affinity for plasma kallikrein over prekallikrein [4]
B1 | > 5 倍 | 0.9 | 1.1 | > 1000 倍
B2 | > 5 倍 | 1.2 | 2.2 | > 1000 倍
